# Experiment: yeast display, Sf9 membrane polyspecificity reagent, FACS + sequencing; frameworks hold sequencing errors
# Summary of the method: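 Synthetic nanobody libraries on Saccharomyces cerevisiae BJ5465 were galactose-induced for 36–48 hours, stained 1 hour at 4 °C with 10% biotinylated, detergent-solubilized Sf9 membrane reagent and enriched on streptavidin microbeads. FACS then separated cells into low and high (top ~1%) gates by anti-HA (expression) and streptavidin (reagent binding) fluorescence. Genes were colony-PCR amplified, MiSeq 2 × 250 sequenced and CDR-length filtered. A clone's polyreactivity label is that of its gate of origin.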
row,Sequence,polyreactivity (PSR sort gate)
1,QVQLVESGVGFVQAGGSLRLSCAASGSTFGYYDMGWYRQAPGKERELVASIRSSGSTYYADSVKGRFTISRDNPKHTVYFQMNSLKPEDTAVYYCNTASLYHRWQGSWPKYDYWGQGTQVTVSS,high polyreactivity
2,QVQLVESGVGIVQAGGSLRLSCAASGRIFDLYAMVWYRQAPGKEREFVAAISLSGGSTYYADSVKGRFTISRDNAKNTVYLQMNSLKPEDTAVYYCAADHTGKTYDYNYWGQGTQVTVSS,low polyreactivity
3,QVQLVESGVGIVQAGGSLRLSCAASGSTFVSNAMGWYIPAPGKERELVAAISWTGGSTYYADSVKGRFTISRDNAKTTVYLQMNSLKPEDTAVYYCAAQLTDTYYQYDYWGQVTQVTVSS,low polyreactivity
4,QVQLVESGVGIVQAGGSLRVSCAASGFTFYSYAKGWYRQAPGKERELVAAISYTGGSTYYADSVKGRFTISRDNAKNTVSLQMNSQKPEDSAVYYCAAKLWTRVTRMRRWVDYWGQGTQVSVSS,high polyreactivity
5,QVQLVESGVGLDQAGGSLRLSCAASGSTFWWNNMVCYRQAPGKERELVAAITTGGGTYYADSVKGRFTISRDNAKNSVYLQMNSLKPEDTAVYYCAATVRSYGWYAYHYSTYGYWGKGTQVTVSS,low polyreactivity
6,QVQLVESGVGLLQAGGSLRLSCAASGFIIVPYAMGWYIQAPGKERELVATITWRGDSTYYADSVKGRFTISRDNAKNTVYLQMNSLKPEDTAVYYCAKRVVRGKVDYWGQGTQVTVSS,low polyreactivity
7,QVQLVESGVGLVHAGGSLRLSCAASGFIFVRYSIGWYRQAPGKEREFVASISWSGGSTYYADSVKGRFTISRDNAKNTVYLQMNSLKPEDTAVYYCAAYVRKDRSRGLYGYWGQGTQVTVSS,high polyreactivity
8,QVQLVESGVGLVKAGGILRLSCAASGSIFLRYAMGWYRQAPGKERELVATISKSGGSTYYADSVKGRFTISRDNAKNTVYLQMNSLNPEDTAVYYCAAGYVYFQTYYYWGQGTQVTVSS,high polyreactivity
9,QVQLVESGVGLVQAAGSLRLSCAASGSIFPDNAMGWSRQAPGKERELVAAIDKGTGSTNYADSVKGRFTISRDNAKNTVYLQMNSLKPEDTAVYYCATYVVTLYWWYTYDYWGQGTQVTVSS,low polyreactivity
10,QVQLVESGVGLVQAGASLRLSCAASGFIFRKNAMGWYRQAPGKERELVAAISGSGGRTYYADSVKGRFTISRDNAKNTVYLQMNSVKPEDNAVYYCNADYLSRRYSFDYWGQGTQVTVSS,high polyreactivity
11,QVQLVESGVGLVQAGGRLRLSCAASGSIFPTNAMGWYRQAPGKERELVAAISGSGGSTYYADSVKGRFTISRDNAKNTVYLQMNSLKPEDTAVYYCAVKPAPTRTTKRLVYGYNYWGQGTQVTVSS,high polyreactivity
12,QVQLVESGVGLVQAGGRLRLSCASSAIIFKIYAMGWYRQAPGKERELVADITSVGSTKYADSVKGRFTISRDNAKNTVYLQMNSLKPEDTAVYYCATDWVTSHDDDYWGQGTQVTVSS,low polyreactivity
13,QVQLVESGVGLVQAGGSLRISCAASGGTFLWYAMGRYRQAPGKERELVADITYSGGSTYYADSVKGRFTISRDNAKNTVYLQMNSLKPEDTAVYYCATRGVSPSRPGYYWGQGTQVTVSS,high polyreactivity
14,QVQLVESGVGLVQAGGSLRLICAASGGTFEFYTMGRYRQAPGKERELVAVINASGDSTYYADSVKGRFTISRDNAKNTVYLQMNSLKPEDTAVYYCAADHRGEYDYWGQGTQVTGSS,low polyreactivity
15,QVQLVESGVGLVQAGGSLRLICAASGITFSGYDMVWYRQAPWKERELVAAISGSGTSTYYADSEKGRFTISRDKAKNTVYLQMNSLKPEDTAVYYCAARDAIFGSDYWGQGTQVTVSS,high polyreactivity
16,QVQLVESGVGLVQAGGSLRLICAASGMTFDNYAMGWYRQAPGKERELVAAITSGDGTYYADSVKGRFTISRDNAKNTVYLQMNSLKPEDTAVFYCAVQGSRTENYDWYYYWGQGTQVTVSS,low polyreactivity
17,QVQLVESGVGLVQAGGSLRLICAASGSTFYYYAMGWYRQAPGKEREFVAAISSSTGSTYYADSVKGRFTISRDNAKNTVYLQLNSLKPEDTAVYYCNALTWYTSQDYDYWGQGTQVTVSS,high polyreactivity
18,QVQLVESGVGLVQAGGSLRLSCAASGFIIYGYVMGWYRQAPGKERELVAAINSSSGRTYYADSVKGRFTISRDNAKNTVYLQMNSLKPEDTAVYYCAAYYYGSYDGTPYDYWGQGTQVTVSS,low polyreactivity
19,QVQLVESGVGLVQAGGSLRLSCAASGFMFGGSAMGWKRQAPGKERELVAAITRSGGSTYYADSVKGRFTISRDNAKNTVYLQMNSLKPEDTAVYYCAAERQPYRTSSYNYWGQGTQVTVSS,high polyreactivity
20,QVQLVESGVGLVQAGGSLRLSCAASGFTFQQYAMAWYRQAPGKERELVASISSSGGSTYYADSVKGRFTISRDNAKNTVYLQMNSLKPEDTAVYYCNARSWVRRYIYYYWGQGTQVTVSS,high polyreactivity
21,QVQLVESGVGLVQAGGSLRLSCAASGFTIYRYAMGWYRQAPGKERELVAAISRGVNTNYADSVKGRFTISRDNAKNTVYLQMNSLKPEETAVYDCAARYDNPSYRTTYGFWGQGTQVTLSS,high polyreactivity
22,QVQLVESGVGLVQAGGSLRLSCAASGGIFSTYTMGWYIQAPGKERELVAAITTGNSTYYADSVKGRFTISRDNAKNTVYLQMNSLKPEDTAVYYCAAFAASRDYYRRLIHDGYDYWGQGTQVTVSS,low polyreactivity

row,Sequence,polyreactivity (PSR sort gate)
1,QVQLVESGVGLVQAGGSLRLSCAASGITFYGYTMGWYRQAPGKEMELVASIRWRGGNTYYADSVKGRFTISRDNAKITVYLQMNSLKPEDTAVYYCNARARVYYYKEIVAYDYWGQGTQVTVSS,high polyreactivity
2,QVQLVESGVGLVQAGGSLRLSCAASGLIFQGYAMGWYTQAPGKERELVAAITLSGGSTYYADSVKGRFTISRDNAKITDYLLMNSLKPEDTAVYYCNAYYPDEPSLYDYWGQGTQVTVSS,low polyreactivity
3,QVQLVESGVGLVQAGGSLRLSCAASGLTFYLYSMGWYRQAPGKERELVAAINSRGGNTYYADSVKGRFTISRDKAKNTVDLQMNSLKPEDTAVYYCAADWGPWYYYWGQGTQVTVSS,high polyreactivity
4,QVQLVESGVGLVQAGGSLRLSCAASGRICVKYAMGWYRQAPGKERELVAAISASGGGTYYADSVKGRFTISRDNAKNTVYLQMNSLKPEDTAVYYCNADFRYPGQVPSYVTYDYWGQGTQVTVSS,low polyreactivity
5,QVQLVESGVGLVQAGGSLRLSCAASGRIFDGYDMGWYRQAPGKERELVAAITSVGSTNYADSVKGRFTISRDNAKNTVYLQMNSLKPEDTAVYYCAAVLYVFYDEYGYWEYFSQYDYWGQGTQVTVSS,low polyreactivity
6,QVQLVESGVGLVQAGGSLRLSCAASGRIFPTYAMGWYRQAPGQERELVAGITSGGRTNYADSVKGRFTISRDNAKNTVYLQMNSLKPEDTAVYYCAKRVWPRDQYGKRNPRMDYWGQGTQVTVSS,high polyreactivity
7,QVQLVESGVGLVQAGGSLRLSCAASGRIFWDYGMGWYRQAPGKERELVAVITWGGGSTYYADSVKGRFTISRDNAKNTVYLQMNSLKPEDTAVYYCAKEYHYYYWGQGTEVTVSS,low polyreactivity
8,QVQLVESGVGLVQAGGSLRLSCAASGRIFYLYAMGWYRQAPGKDSELVAAITWSGGSTTYADSVKVRFTISRDNAKNSVYLQMNSLKPEETAVYYCNADGWIFPSVSPMDYWGQGTQVTVSS,low polyreactivity
9,QVQLVESGVGLVQAGGSLRLSCAASGRTFPYNAMGWYRQAPGKERELVAVISSSGGSTYYADSVKGRFTISRDNAKNTVYLQMNSLKPEDTAVYYCNTRPYFYRRPGYRYSGYDYWGLGTQVTVSS,high polyreactivity
10,QVQLVESGVGLVQAGGSLRLSCAASGRTFYKNAMGWSRQSPGKERELVAAISRRGGTTYYADSVKGRFTISRDNAKNTVYLQLNSPKPEDTAVYYCAVTRLGPTIGFYYWGQGTQVTVSS,high polyreactivity
11,QVQLVESGVGLVQAGGSLRLSCAASGRTFYVYAMGWNIQAPGKERELVAAISWGRGSTYYADSVKGRFTNSRDYAKNTVYLQMNSLQPEDTAVYYCADDKTRYRLGRDYWGQGTQVTVSS,low polyreactivity
12,QVQLVESGVGLVQAGGSLRLSCAASGSIFATNDMGWYRQAPGKERELVASISSGGGSTYYADSVKGRFTISRDNAKNTVYFQMNSLKPEDTAVYYCAADRGDTYTTDYDYWGQGTQVTLSS,low polyreactivity
13,QVQLVESGVGLVQAGGSLRLSCAASGSIFHINAMGWSRQAPGKERELEADISQRGGSTYYADSVKGRFTISRDNAKNTVYLQMNSLKPEDTAVYFCAVVHVFYAVSYFSFYTYDYWGQGTQVTLSS,low polyreactivity
14,QVQLVESGVGLVQAGGSLRLSCAASGSIFQDNAMGWYRQAPGKERELVAAISSGDSTYYADSVKGRFTISRDNAKNTVYLQMNSLKPEDTAVYYCAKVPSRWSRQDKAQFDYWGQGTQVTVSS,low polyreactivity
15,QVQLVESGVGLVQAGGSLRLSCAASGSIFYDNAMGWYRQAPGKERELVAVITVSGDSTYYADSVKGRFTISRDNAKNTVYLQMNSLKPEDTAVYYCNTDAISGSHFWRYITFGYLDDYWGQGTQVTVSS,low polyreactivity
16,QVQLVESGVGLVQAGGSLRLSCAASGSIFYSNAMGRYRQAPGKERELVASIRGSGVSTYYADSVKGRFTISRDNAKNTVYLQMNRLKPEDTAVYYCAARYGRSYFGYYYWGQGTQVTVSS,high polyreactivity
17,QVQLVESGVGLVQAGGSLRLSCAASGSIFYVYAMGWYRQAPGKERELVAAITNYADSVKGRFTISRDNAKNTVYLQMNSLKPEDTAVYYCAADWWRVEMDYWGQGTQVTVSS,low polyreactivity
18,QVQLVESGVGLVQAGGSLRLSCAASGSTFGTYDMGWFRQAPGKERELVAAITWIGDTTYYADSVKGRFTISRDNAKNTVYLQMNSLIPEDTAVYYCAAEPNYQYYGPLGYDYWGQGTQVTVSS,low polyreactivity
19,QVQLVESGVGLVQAGGSLRLSCAASGSTFKYYGMGWYRQAPGKERELVASISSSGTRTYYADSVKGRFTISSDNAKNTVYLQMNSLKPEDTAVYYCAADSYATYFLYDSWGQGTQVSVSS,low polyreactivity
20,QVQLVESGVGLVQAGGSLRLSCAASGSTFNYYAMGWYRQAPGKERELVAAISSRSSRTFYADSVKGRFTISRDNAKNTVYLQMHSVKPEDTAVYYCAVKKSAPDGDYWGQGTQVTVSS,high polyreactivity
21,QVQLVESGVGLVQAGGSLRLSCAASGSTFRSNALGWYRQAPGKEREVVAGISSGGGTYYADSVKGRFTISRDNAKNTVYLQMNSLKPEDTAVYYCAKVVYFGWSVQYYYWGQGTQVTVSS,low polyreactivity

# From the nanobody polyreactivity screen of Harvey et al. (2022)
